The test system of experiment [1] is hPPARg2 promoter. Kind of experiment: NHR-promoter luciferase screen, hPPARg2 promoter. The class given is cell-based, human. The note with it: for Luc. act., normalized to lacZ / Normalized Luc. act., normalized to control: PPARG2 promoter, hormone receptor with or without its ligand; for Normalized Luc. act., normalized to control: relative to control; for Results of assays of transcription factor (+/- ligand) with hPPARg2: Table 6d, luciferase activity relative to control (control = 1.00). Summed up: (§1)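 CV-1 cells were co-transfected with 50 ng NHR (homodimer or NHR/RXR heterodimer), 100 ng promoter-luciferase construct and 50 ng LacZ. Luciferase was normalized to LacZ and to a no-NHR/no-ligand control.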

The test system of experiment [2] is mDio2 promoter. Kind of experiment: NHR-promoter luciferase screen, mDio2 promoter. To be noted: for Luc. act., normalized to lacZ / Normalized Luc. act., normalized to control: Dio2, HR component without or with its ligand; for mDio2 promoter reporter activity: transcription factor +/- ligand, control = 1.00. In kind it is cell-based, mouse. An outline of the steps: as §1

Experiment [3] relates to mCAR promoter. Description: NHR-promoter luciferase screen, mCAR promoter. In kind it is cell-based, mouse. The note with it: for luciferase activity normalized to lacZ activity and to a control, mCAR: mCAR promoter-luciferase, CV-1 cells, NHR +/- ligand, control = 1.00; for Luc. act., normalized to lacZ / Normalized Luc. act., normalized to control: mCAR promoter, HR/ligand component. Summed up:
as §1

The subject of experiment [4] is mUCP2 promoter. Description: NHR-promoter luciferase screen, mUCP2 promoter. In kind it is cell-based, mouse. The note with it: for Luc. act., normalized to lacZ / Normalized Luc. act., normalized to control: mUCP2 promoter reporter, co-transfected HR, with or without its ligand; for Normalized Luc. act., normalized to control: relative to control; for luciferase activity normalized to lacZ activity and to a control, mUCP2: mUCP2 promoter-luciferase, CV-1 cells, NHR +/- ligand, control = 1.00. An outline of the steps: as §1

Experiment [5] relates to mABCA1 promoter. Description: NHR-promoter luciferase screen, mABCA1 promoter. The class given is cell-based, mouse. The note with it: for Luc. act., normalized to lacZ / Normalized Luc. act., normalized to control: ABCA1 promoter, hormone receptor with or without its ligand; for Normalized Luc. act., normalized to control: relative to control; for mABCA1 promoter reporter activity: transcription factor +/- ligand, control = 1.00. Summed up:
as §1

Experiment [6] deals with hIFNg promoter. Description: NHR-promoter luciferase screen, hIFNg promoter. The class given is cell-based, human. The note with it: for Luc. act., normalized to lacZ / Normalized Luc. act., normalized to control: IFNg promoter, HR component without or with ligand; for hIFNg promoter reporter activity: transcription factor +/- ligand, control = 1.00. Summed up:
as §1

B1: RXRb: Retinoic X Receptor β (NR2B2), cDNA driver (protein, UniProt P28702 1-533, looked up)
Retinoic acid receptor …: MSWAARPPFLPQRHAAGQCGPVGVRKEMHCGVASRWRRRRPWLDPAAAAAAAVAGGEQQTPEPEPGEAGRDGMGDSGRDSRSPDSSSPNPLPQGVPPPSPPGPPLPPSTAPSLGGSGAPPPPPMPPPPLGSPFPVISSSMGSPGLPPPAPPGFSGPVSSPQINSTVSLPGGGSGPPEDVKPPVLGVRGLHCPPPPGGPGAGKRLCAICGDRSSGKHYGVYSCEGCKGFFKRTIRKDLTYSCRDNKDCTVDKRQRNRCQYCRYQKCLATGMKREAVQEERQRGKDKDGDGEGAGGAPEEMPVDRILEAELAVEQKSDQGVEGPGGTGGSGSSPNDPVTNICQAADKQLFTLVEWAKRIPHFSSLPLDDQVILLRAGWNELLIASFSHRSIDVRDGILLATGLHVHRNSAHSAGVGAIFDRVLTELVSKMRDMRMDKTELGCLRAIILFNPDAKGLSNPSEVEVLREKVYASLETYCKQKYPEQQGRFAKLLLRLPALRSIGLKCLEHLFFFKLIGDTPIDTFLMEMLEAPHQLA
With B1, in experiment [1], the “Luc. act., normalized to lacZ” value came to 1.5; the “Normalized Luc. act., normalized to control” value was 0.8; the “Results of assays of transcription factor (+/- ligand) with hPPARg2” value (“Results” below) was 0.75. In experiment [2], the “Luc. act., normalized to lacZ” value was 22.8; the “Normalized Luc. act., normalized to control” value is on record as 1.5; the “mDio2 promoter reporter activity” value was 1.45. Also, in experiment [3], the “luciferase activity normalized to lacZ activity and to a control, mCAR” value (from here on “luciferase activity normalized … mCAR”) is given as 1.27; the “Luc. act., normalized to lacZ” value is reported as 48.6; the “Normalized Luc. act., normalized to control” value was found to be 1.3. Also, in experiment [4], the “Luc. act., normalized to lacZ” value is 87.7; the “Normalized Luc. act., normalized to control” value is reported as 0.8; the “luciferase activity normalized to lacZ activity and to a control, mUCP2” value (from here on “luciferase activity normalized … mUCP2”) came to 0.80. Besides, in experiment [5], the “Luc. act., normalized to lacZ” value is reported as 11.1; the “Normalized Luc. act., normalized to control” value stood at 2.0; the “mABCA1 promoter reporter activity” value came to 1.97. Moreover, in experiment [6], the “Luc. act., normalized to lacZ” value is 20.0; the “Normalized Luc. act., normalized to control” value amounted to 1.3; the “hIFNg promoter reporter activity” value was determined as 1.26.

B2: FXR: Farnesoid X Receptor (NR1H4), cDNA driver (protein, UniProt Q96RI1 1-486, looked up)
Bile acid receptor: MVMQFQGLENPIQISPHCSCTPSGFFMEMMSMKPAKGVLTEQVAGPLGQNLEVEPYSQYSNVQFPQVQPQISSSSYYSNLGFYPQQPEEWYSPGIYELRRMPAETLYQGETEVAEMPVTKKPRMGASAGRIKGDELCVVCGDRASGYHYNALTCEGCKGFFRRSITKNAVYKCKNGGNCVMDMYMRRKCQECRLRKCKEMGMLAECMYTGLLTEIQCKSKRLRKNVKQHADQTVNEDSEGRDLRQVTSTTKSCREKTELTPDQQTLLHFIMDSYNKQRMPQEITNKILKEEFSAEENFLILTEMATNHVQVLVEFTKKLPGFQTLDHEDQIALLKGSAVEAMFLRSAEIFNKKLPSGHSDLLEERIRNSGISDEYITPMFSFYKSIGELKMTQEEYALLTAIVILSPDRQYIKDREAVEKLQEPLLDVLQKLCKIHQPENPQHFACLLGRLTELRTFNHHHAEMLMSWRVNDHKFTPLLCEIWDVQ
As to B2, in experiment [1], the “Luc. act., normalized to lacZ” value is 1.8; the “Normalized Luc. act., normalized to control” value was 0.9; the “Results” value was determined as 0.89. Moreover, in experiment [2], the “Luc. act., normalized to lacZ” value is recorded as 20.2; the “Normalized Luc. act., normalized to control” value was 1.3; the “mDio2 promoter reporter activity” value is 1.29. Further, in experiment [3], the “luciferase activity normalized … mCAR” value was determined as 0.88; the “Luc. act., normalized to lacZ” value is 33.6; the “Normalized Luc. act., normalized to control” value was 0.9. Further, in experiment [4], the “Luc. act., normalized to lacZ” value stood at 111.6; the “Normalized Luc. act., normalized to control” value was found to be 1.0; the “luciferase activity normalized … mUCP2” value is given as 1.02. Further, in experiment [5], the “Luc. act., normalized to lacZ” value was 14.0; the “Normalized Luc. act., normalized to control” value is on record as 2.5; the “mABCA1 promoter reporter activity” value turned out to be 2.50. For the same molecule, in experiment [6], the “Luc. act., normalized to lacZ” value amounted to 17.12; the “Normalized Luc. act., normalized to control” value was determined as 1.1; the “hIFNg promoter reporter activity” value stood at 1.08.

B3: CAR: Constitutive Androstane Receptor (NR1I3), cDNA driver (protein, UniProt Q14994 1-352, looked up)
Nuclear receptor subfamily 1 …: MASREDELRNCVVCGDQATGYHFNALTCEGCKGFFRRTVSKSIGPTCPFAGSCEVSKTQRRHCPACRLQKCLDAGMRKDMILSAEALALRRAKQAQRRAQQTPVQLSKEQEELIRTLLGAHTRHMGTMFEQFVQFRPPAHLFIHHQPLPTLAPVLPLVTHFADINTFMVLQVIKFTKDLPVFRSLPIEDQISLLKGAAVEICHIVLNTTFCLQTQNFLCGPLRYTIEDGARVSPTVGFQVEFLELLFHFHGTLRKLQLQEPEYVLLAAMALFSPDRPGVTQRDEIDQLQEEMALTLQSYIKGQQRRPRDRFLYAKLLGLLAELRSINEAYGYQIQHIQGLSAMMPLLQEICS
Take B3: in experiment [1], the “Luc. act., normalized to lacZ” value was 1.3; the “Normalized Luc. act., normalized to control” value is recorded as 0.6; the “Results” value stood at 0.63. In experiment [2], the “Luc. act., normalized to lacZ” value turned out to be 18.4; the “Normalized Luc. act., normalized to control” value amounted to 1.2; the “mDio2 promoter reporter activity” value was determined as 1.17. In addition, in experiment [3], the “luciferase activity normalized … mCAR” value turned out to be 0.51; the “Luc. act., normalized to lacZ” value was 19.41; the “Normalized Luc. act., normalized to control” value is listed as 0.5. In experiment [4], the “Luc. act., normalized to lacZ” value is given as 151.6; the “Normalized Luc. act., normalized to control” value is on record as 1.4; the “luciferase activity normalized … mUCP2” value was determined as 1.38. Further, in experiment [5], the “Luc. act., normalized to lacZ” value is given as 6.1; the “Normalized Luc. act., normalized to control” value is on record as 1.1; the “mABCA1 promoter reporter activity” value is 1.08. Further, in experiment [6], the “Luc. act., normalized to lacZ” value was 19.0; the “Normalized Luc. act., normalized to control” value is reported as 1.2; the “hIFNg promoter reporter activity” value is given as 1.19.

B4: PXR: Pregnane X Receptor (NR1I2), cDNA driver (protein, UniProt O75469 1-434, looked up)
Nuclear receptor subfamily 1 …: MEVRPKESWNHADFVHCEDTESVPGKPSVNADEEVGGPQICRVCGDKATGYHFNVMTCEGCKGFFRRAMKRNARLRCPFRKGACEITRKTRRQCQACRLRKCLESGMKKEMIMSDEAVEERRALIKRKKSERTGTQPLGVQGLTEEQRMMIRELMDAQMKTFDTTFSHFKNFRLPGVLSSGCELPESLQAPSREEAAKWSQVRKDLCSLKVSLQLRGEDGSVWNYKPPADSGGKEIFSLLPHMADMSTYMFKGIISFAKVISYFRDLPIEDQISLLKGAAFELCQLRFNTVFNAETGTWECGRLSYCLEDTAGGFQQLLLEPMLKFHYMLKKLQLHEEEYVLMQAISLFSPDRPGVLQHRVVDQLQEQFAITLKSYIECNRPQPAHRFLFLKIMAMLTELRSINAQHTQRLLRIQDIHPFATPLMQELFGITGS
Consider B4, for which, in experiment [1], the “Luc. act., normalized to lacZ” value was found to be 1.8; the “Normalized Luc. act., normalized to control” value amounted to 0.9; the “Results” value is on record as 0.91. Moreover, in experiment [2], the “Luc. act., normalized to lacZ” value came to 32.7; the “Normalized Luc. act., normalized to control” value came to 2.1; the “mDio2 promoter reporter activity” value is recorded as 2.08. In addition, in experiment [3], the “luciferase activity normalized … mCAR” value was 1.49; the “Luc. act., normalized to lacZ” value was found to be 56.8; the “Normalized Luc. act., normalized to control” value was found to be 1.5. Further, in experiment [4], the “Luc. act., normalized to lacZ” value amounted to 119.1; the “Normalized Luc. act., normalized to control” value is recorded as 1.1; the “luciferase activity normalized … mUCP2” value was found to be 1.08. In experiment [5], the “Luc. act., normalized to lacZ” value is given as 15.2; the “Normalized Luc. act., normalized to control” value is 2.7; the “mABCA1 promoter reporter activity” value was 2.72. In experiment [6], the “Luc. act., normalized to lacZ” value was determined as 23.93; the “Normalized Luc. act., normalized to control” value is given as 1.5; the “hIFNg promoter reporter activity” value worked out at 1.50.

(Values after patent publication US20110263454A1, “Methods of Identifying Functional Characteristics of Promoters, Transcription Modifying Proteins and Transcription Modulating Agents” (Salk Institute for Biological Studies, priority 2008, published 2011).)
